Experimental data from US8889408B2, “Factor taking part in transcription control” (Sony Corporation, priority 2002, dated 2014).

Key:
Type in all cases: binding
[1] = biological target: T1, HDAC1 (Homo sapiens, UniProt Q13547); experiment: Immunoprecipitation of GFP-HDART with Flag-HDAC in 293 cells; details: co-transfected 293 cells; anti-FLAG immunoprecipitation
T1 construct: made in house
Protocol: (§1) Flag-HDACs expression vectors capable of expressing different types of HDAC (1, 3, 4 or 6) and a GFP-HDART expression vector were, respectively, co-transfected with 293 cells in the same manner as in Example 2, and cell extracts were prepared 24 hours after the transfection. The respective cell extracts were incubated with an anti-Flag antibody, followed by immunoprecipitation. The resulting immunoprecipitate was isolated with SDS-PAGE and an isolated pattern was transferred to a membrane, followed by immunoblotting with use of an anti-Flag antibody or […]. For reference, in order to confirm the expression of GFP-HDART protein in the respective cells, individual samples prior to the immunoprecipitation were similarly developed with SDS-PAGE to conduct immunoblotting with use of an anti-GFP antibody. […] The kinds of HDAC's from the left side of the figure are as follows: lane 1, HDAC1; lane 3, HDAC3; lane 4, HDAC4; and lane 5, HDAC6. It will be noted that lane 2 is for the sample in which GFP-HDART alone was expressed.

[2] = biological target: T2, HDAC4 (Homo sapiens, UniProt P56524); experiment: as above; details: co-transfected 293 cells; anti-FLAG immunoprecipitation
T2 construct: expressed in transfected cells; host or cells: 293 cells
Protocol: as §1

[3] = biological target: HDAC3 (Homo sapiens, UniProt O15379); experiment: as above; parameters: expressed in transfected cells; host or cells: 293 cells; details: co-transfected 293 cells; anti-FLAG immunoprecipitation
Protocol: as §1

[4] = biological target: T3, Skip (Homo sapiens, UniProt Q13573); experiment: Immunoprecipitation analysis of HDART-Skip interaction in 293 cells; parameters: expressed in transfected cells; host or cells: HEK293 cells
T3 sequence (Q13573 1-536): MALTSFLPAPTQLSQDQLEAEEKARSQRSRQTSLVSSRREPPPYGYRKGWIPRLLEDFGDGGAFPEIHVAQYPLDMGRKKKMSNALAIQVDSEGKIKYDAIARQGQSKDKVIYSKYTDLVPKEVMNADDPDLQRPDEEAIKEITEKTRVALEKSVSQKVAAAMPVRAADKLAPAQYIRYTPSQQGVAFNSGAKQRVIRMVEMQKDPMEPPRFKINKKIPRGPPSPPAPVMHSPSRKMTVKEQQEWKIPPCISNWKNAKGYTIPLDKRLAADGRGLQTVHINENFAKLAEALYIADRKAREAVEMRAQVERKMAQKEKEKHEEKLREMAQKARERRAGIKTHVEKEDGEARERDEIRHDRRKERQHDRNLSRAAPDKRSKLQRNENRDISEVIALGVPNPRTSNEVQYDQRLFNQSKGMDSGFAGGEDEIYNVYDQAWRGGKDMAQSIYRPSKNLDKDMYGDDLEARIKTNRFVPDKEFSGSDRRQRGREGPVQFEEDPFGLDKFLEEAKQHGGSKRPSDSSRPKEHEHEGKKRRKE
Protocol: The interaction between HDART and Skip inside the mammalian cells was confirmed according to the immunoprecipitation analysis. For the confirmation, the Flag-Skip expression vector expressing the Flag-Skip fused protein and the GFP-HDART expression protein expressing the GFP-HDART fused protein (FIG. 4A) were transfected into HEK293 cells by use of Effectene kit (QIAGEN™). It will be noted that a control experiment was conducted such that the Flag-Skip expression vector alone and the GFP-HDART expression vector were, respectively, transfected into cells of the same type under the same conditions.
24 hours after the transfection, the cells were lysed on ice for 30 minutes in a Nonidet P-40 buffer solution (50 mM Tris HCl (pH 7.6), 150 mM NaCl, 5 mM EDTA, 0.5% Nonidet P-40 and 1 mM PMSF) containing 100 μl of a protease inhibitory substance cocktail (Sigma #p8340) to prepare a cell extract (1 mg). This extract was incubated for 30 minutes at 4° C. along with 40 μl of protein A/G sepharose beads for preliminary clarification. Next, the thus clarified supernatant extract was further incubated for 1 hour along with an anti-Flag antibody or a negative control mouse IgG antibody (2 μg), followed by precipitation for 30 minutes by use of 40 μl of protein A/G sepharose beads. […]
Further, the interaction of endogenous HDART and externally introduced Skip was analyzed. […]

T2 sequence (P56524 whole entry, species assumed): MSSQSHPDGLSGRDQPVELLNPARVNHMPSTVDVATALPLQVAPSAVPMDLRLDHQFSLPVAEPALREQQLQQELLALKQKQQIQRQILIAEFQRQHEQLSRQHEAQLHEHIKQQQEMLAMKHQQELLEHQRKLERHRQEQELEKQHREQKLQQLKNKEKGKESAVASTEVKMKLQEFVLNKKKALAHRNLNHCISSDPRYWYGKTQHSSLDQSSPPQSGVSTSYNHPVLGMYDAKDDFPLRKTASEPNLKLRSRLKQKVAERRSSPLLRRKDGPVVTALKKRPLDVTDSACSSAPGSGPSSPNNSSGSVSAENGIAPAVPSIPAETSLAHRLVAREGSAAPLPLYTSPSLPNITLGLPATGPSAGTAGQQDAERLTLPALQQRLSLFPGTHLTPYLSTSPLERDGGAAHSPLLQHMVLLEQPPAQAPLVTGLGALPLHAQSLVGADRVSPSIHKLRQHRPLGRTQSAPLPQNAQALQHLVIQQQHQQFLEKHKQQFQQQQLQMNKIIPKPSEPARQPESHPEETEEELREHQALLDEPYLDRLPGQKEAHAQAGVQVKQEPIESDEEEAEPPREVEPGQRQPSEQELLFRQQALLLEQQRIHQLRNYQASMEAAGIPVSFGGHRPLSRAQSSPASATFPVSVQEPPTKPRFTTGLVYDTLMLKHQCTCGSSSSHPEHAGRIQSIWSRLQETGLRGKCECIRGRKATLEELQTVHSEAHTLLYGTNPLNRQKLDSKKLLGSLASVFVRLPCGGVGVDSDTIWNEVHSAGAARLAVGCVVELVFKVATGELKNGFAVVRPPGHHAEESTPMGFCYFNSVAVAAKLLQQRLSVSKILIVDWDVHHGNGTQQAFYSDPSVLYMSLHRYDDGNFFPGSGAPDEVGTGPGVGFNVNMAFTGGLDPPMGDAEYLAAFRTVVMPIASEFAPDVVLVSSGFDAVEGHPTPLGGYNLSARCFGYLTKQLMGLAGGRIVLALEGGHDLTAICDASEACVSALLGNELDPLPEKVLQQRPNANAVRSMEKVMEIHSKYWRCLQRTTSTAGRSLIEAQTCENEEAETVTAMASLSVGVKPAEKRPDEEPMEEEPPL
HDAC3, sequence (O15379 whole entry, species assumed): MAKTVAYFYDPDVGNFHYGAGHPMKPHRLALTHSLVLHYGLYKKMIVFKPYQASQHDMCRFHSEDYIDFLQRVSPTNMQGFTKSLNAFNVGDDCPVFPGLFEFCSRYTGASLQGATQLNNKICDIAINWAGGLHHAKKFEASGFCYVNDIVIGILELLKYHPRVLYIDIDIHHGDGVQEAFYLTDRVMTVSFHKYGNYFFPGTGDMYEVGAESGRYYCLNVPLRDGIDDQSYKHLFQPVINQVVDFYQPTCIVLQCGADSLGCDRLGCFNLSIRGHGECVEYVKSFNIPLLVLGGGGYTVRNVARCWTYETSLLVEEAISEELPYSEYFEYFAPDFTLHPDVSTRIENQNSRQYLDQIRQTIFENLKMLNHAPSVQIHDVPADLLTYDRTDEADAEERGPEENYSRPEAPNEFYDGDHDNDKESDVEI
T1 sequence (Q13547 whole entry, species assumed): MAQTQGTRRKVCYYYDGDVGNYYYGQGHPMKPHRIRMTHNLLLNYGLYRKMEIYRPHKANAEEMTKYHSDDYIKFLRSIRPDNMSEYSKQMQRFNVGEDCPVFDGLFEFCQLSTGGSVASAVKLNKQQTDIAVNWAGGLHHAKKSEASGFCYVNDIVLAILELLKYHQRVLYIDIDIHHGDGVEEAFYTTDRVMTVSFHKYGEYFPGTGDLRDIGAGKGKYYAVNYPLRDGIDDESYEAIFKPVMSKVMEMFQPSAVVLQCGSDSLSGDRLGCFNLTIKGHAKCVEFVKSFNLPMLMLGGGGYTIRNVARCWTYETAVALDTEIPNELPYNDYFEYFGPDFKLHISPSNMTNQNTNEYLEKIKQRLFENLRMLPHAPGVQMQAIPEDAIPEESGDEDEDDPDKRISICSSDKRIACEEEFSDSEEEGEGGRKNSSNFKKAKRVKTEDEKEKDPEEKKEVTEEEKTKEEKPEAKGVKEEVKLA

B1: HDART: HDAC associated repressor TPR protein, 855 amino acids, SEQ ID NO: 2; transcription repressing factor, used as fusions or expressed from vector (protein, listed as Homo sapiens)
chain: MVVMARLSRPERPDLVFEEEDLPYEEEIMRNQFSVKCWLRYIEFKQGAPKPRLNQLYERALKLLPCSYKLWYRYLKARRAQVKHRCVTDPAYEDVNNCHERAFVFMHKMPRLWLDYCQFLMDQGRVTHTRRTFDRALRALPITQHSRIWPLYLRFLRSHPLPETAVRGYRRFLKLSPESAEEYIEYLKSSDRLDEAAQRLATVVNDERFVSKAGKSNYQLWHELCDLISQNPDKVQSLNVDAIIRGGLTRFTDQLGKLWCSLADYYIRSGHFEKARDVYEEAIRTVMTVRDFTQVFDSYAQFEESMIAAKMETASELGREEEDDVDLELRLARFEQLISRRPLLLNSVLLRQNPHHVHEWHKRVALHQGRPREIINTYTEAVQTVDPFKATGKPHTLWVAFAKFYEDNGQLDDARVILEKATKVNFKQVDDLASVWCQCGELELRHENYDEALRLLRKATALPARRAEYFDGSEPVQNRVYKSLKVWSMLADLEESLGTFQSTKAVYDRILDLRIATPQIVINYAMFLEEHKYFEESFKAYERGISLFKWPNVSDIWSTYLTKFIARYGGRKLERARDLFEQALDGCPPKYAKTLYLLYAQLEEEWGLARHAMAVYERATRAVEPAQQYDMFNIYIKRAAEIYGVTHTRGIYQKAIEVLSDEHAREMCLRFADMECKLGEIDRARAIYSFCSQICDPRTTGAFWQTWKDFEVRHGNEDTIKEMLRIRRSVQATYNTQVNFMASQMLKVSGSATGTVSDLAPGQSGMDDMKLLEQRAEQLAAEAERDQPLRAQSKILFVRSDASREELAELAQQVNPEEIQLGEDEDEDEMDLEPNEVRLEQQSVPAAVFGSLKED
- interaction with HDAC1 [1]: exhibits interaction
- interaction with HDAC4 [2]: exhibits interaction
- interaction with HDAC3 [3]: exhibits interaction
- co-precipitation of endogenous HDART with Flag-Skip ([4]; 293 cells, anti-Flag antibody): co-precipitated
- interaction of foreign HDART (GFP-HDART) with Flag-Skip ([4]; co-expression in 293 cells, immunoprecipitation with anti-Flag antibody): specifically interact
